Positions count from the first letter of the chain named. In names and notes the source's numbering stands.
B1: LeeFG (dsDNA)
DNA 1: AAATAATTGATAATA
DNA 2: TATTATCAATTATTT
B2: LeeG (dsDNA)
DNA 1: AAATAATTGATAATAATGTTTTTGTTACGT
DNA 2: ACGTAACAAAAACATTATTATCAATTATTT
B3: LeeF (dsDNA)
DNA 1: TTTCTTTTTTTATTGAAATAATTGATAATA
DNA 2: TATTATCAATTATTTCAATAAAAAAAGAAA
B4: TATA 10-mer (dsDNA)
DNA 1: CGCTATAGCG
DNA 2: CGCTATAGCG
B5: AATT 10-mer (dsDNA)
DNA 1: CGCAATTGCG
DNA 2: CGCAATTGCG
B6: LeeH G10A (dsDNA)
DNA 1: GCGATAATTAATACC
DNA 2: GGTATTAATTATCGC
B7: AAAA 10-mer (dsDNA)
DNA 1: CGCAAAAGCG
DNA 2: CGCTTTTGCG
B8: LeeH T12C (dsDNA)
DNA 1: GCGATAATTGACACC
DNA 2: GGTGTCAATTATCGC
B9: LeeH T5C (dsDNA)
DNA 1: GCGACAATTGATACC
DNA 2: GGTATCAATTGTCGC
B10: LeeH T9C (dsDNA)
DNA 1: GCGATAATCGATACC
DNA 2: GGTATCGATTATCGC
B11: LeeH (WT) (dsDNA)
DNA 1: GCGATAATTGATACC
DNA 2: GGTATCAATTATCGC
B12: LeeH A13G (dsDNA)
DNA 1: GCGATAATTGATGCC
DNA 2: GGCATCAATTATCGC
B13: LeeH A4G (dsDNA)
DNA 1: GCGGTAATTGATACC
DNA 2: GGTATCAATTACCGC
B14: LeeH A7G (dsDNA)
DNA 1: GCGATAGTTGATACC
DNA 2: GGTATCAACTATCGC
B15: AAAT 10-mer (dsDNA)
DNA 1: CGCAAATGCG
DNA 2: CGCATTTGCG
B16: LeeH A11G (dsDNA)
DNA 1: GCGATAATTGGTACC
DNA 2: GGTACCAATTATCGC
B17: LeeH T8C (dsDNA)
DNA 1: GCGATAACTGATACC
DNA 2: GGTATCAGTTATCGC
B18: AATA 10-mer (dsDNA)
DNA 1: CGCAATAGCG
DNA 2: CGCTATTGCG
B19: LeeH A6G (dsDNA)
DNA 1: GCGATGATTGATACC
DNA 2: GGTATCAATCATCGC
B20: AATTC 10-mer (dsDNA)
DNA 1: CGGAATTCCG
DNA 2: CGGAATTCCG
B21: TTAA 10-mer (dsDNA)
DNA 1: CGCTTAAGCG
DNA 2: CGCTTAAGCG

Target: T1, CT-Ler (Escherichia coli EHEC O157:H7, UniProt Q7DB51 70-116)
T1 chain: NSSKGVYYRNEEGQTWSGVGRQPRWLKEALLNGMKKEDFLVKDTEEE
Experiment: fluorescence anisotropy; deviates from 1:1 model, multiple binding suggested; Anisotropy: 40 mM HEPES pH 7.5, 60 mM K-glutamate, 0.01% NaN3, 20 C; EMSA: 15 mM Na-phosphate pH 7.5, 100 mM NaCl, 0.01% NaN3, room temperature; NMR structure:
Details: protein: recombinant; tags: N-terminal His6 (pHAT2); blunt

Row | Binder | binding result
1 | B1 | binds

Target: T1, CT-Ler
Experiment: fluorescence anisotropy; among highest affinities; Anisotropy: 40 mM HEPES pH 7.5, 60 mM K-glutamate, 0.01% NaN3, 20 C; EMSA: 15 mM Na-phosphate pH 7.5, 100 mM NaCl, 0.01% NaN3, room temperature; NMR structure:
Details: protein: recombinant; tags: N-terminal His6 (pHAT2); blunt

Row | Binder | binding result
2 | B2 | binds
3 | B3 | binds

Target: T2, CT-H-NS (UniProt P0ACF8 95-137)
T2 chain: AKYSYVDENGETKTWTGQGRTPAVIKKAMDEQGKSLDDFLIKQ
Experiment: NMR titration (1H-15N HSQC); Anisotropy: 40 mM HEPES pH 7.5, 60 mM K-glutamate, 0.01% NaN3, 20 C; EMSA: 15 mM Na-phosphate pH 7.5, 100 mM NaCl, 0.01% NaN3, room temperature; NMR structure:
Details: protein: recombinant; tags: N-terminal His6 (pHAT2); blunt, self-complementary

Row | Binder | Kd
4 | B4 | ~102000 nM
5 | B5 | ~41000 nM

Target: T1, CT-Ler
Experiment: fluorescence anisotropy; Anisotropy: 40 mM HEPES pH 7.5, 60 mM K-glutamate, 0.01% NaN3, 20 C; EMSA: 15 mM Na-phosphate pH 7.5, 100 mM NaCl, 0.01% NaN3, room temperature; NMR structure:
Details: protein: recombinant; tags: N-terminal His6 (pHAT2); blunt

Row | Binder | Kd
6 | B6 | 2310 ± 70 nM
7 | B7 | 8070 ± 220 nM
8 | B8 | 1450 ± 100 nM
9 | B9 | 1380 ± 110 nM
10 | B10 | 1360 ± 80 nM
11 | B11 | 1100 ± 50 nM
12 | B12 | 1480 ± 90 nM
13 | B13 | 1060 ± 80 nM
14 | B14 | 2710 ± 320 nM
15 | B15 | 6170 ± 360 nM
16 | B16 | 1430 ± 40 nM
17 | B17 | 1700 ± 130 nM
18 | B18 | 11500 ± 960 nM
19 | B19 | 2480 ± 200 nM

Same assay, conditions: protein: recombinant; tags: N-terminal His6 (pHAT2); blunt, self-complementary

Row | Binder | Kd
20 | B20 | 4140 ± 310 nM
21 | B4 | 16600 ± 2200 nM
22 | B5 | 3450 ± 560 nM
23 | B21 | 22800 ± 2990 nM

Target: T3, CT-Ler R90G (Escherichia coli EHEC O157:H7, UniProt Q7DB51 70-116, R90G)
T3 chain: T1 chain with R21G
Experiment: as above
Details: protein: recombinant; tags: N-terminal His6 (pHAT2); blunt

Row | Binder | binding result
24 | B11 | no binding

Target: T4, CT-Ler R90Q (Escherichia coli EHEC O157:H7, UniProt Q7DB51 70-116, R90Q)
T4 chain: T1 chain with R21Q
Experiment: as above
Details: protein: recombinant; tags: N-terminal His6 (pHAT2); blunt

Row | Binder | binding result
25 | B11 | no binding

— article PMC3219716, “Indirect DNA Readout by an H-NS Related Protein: Structure of the DNA Complex of the C-Terminal Domain of Ler”
